Test results as given in patent US20250145711A1 (Janssen / Centocor, published 2025).

Experiments:
[1] = biological target: T1, TRCW5 antigen (CD3δε-Fc-Avi) (biotinylated (site not stated)); assay: ELISA, E. coli scFv on biotinylated TRCW5
T1 construct: also called recombinant CD3
Method: Briefly, DNA was transformed into an E. coli expression vector to generate scFv molecules having a C-terminal HA-tag, and cells were plated on 2×YT/Carb/2% Glucose grown overnight at 37 C. Colonies were picked and transferred 50 ul of overnight growth cultures to new plates containing 500 ul of 2×YT/Carb/0.1% Glucose, grown for 6-7 hr, and combined with 50 ul 2×YT medium containing 1×carbenicillin & 12×IPTG. Cultures were incubated with shaking ˜600 RPM 30° C. overnight. Streptavidin coated plates were bound with 50 μL of biotinylated TRCW5 antigen (CD3δε-Fc-Avi, SEQ ID NO: 39) at the concentrations indicated in the ELISA graph for 45 min at room temperature with shaking (FIG. 1, FIG. 3, FIG. 4) followed by washing 3× with 1×TBST. Plates were blocked with 200 ul 3% Milk in 1×TBST for ˜45 mins at room temperature followed by washing 3× with 1×TBST. E. coli cultures were harvested by centrifugation at […] for 10 mins 4° C. and 50 μL of supernatant was transferred into CD3-coated plates followed by incubation at 4 C for 45 min. Plates were washed 3× with 1×TBST. Bound scFv was detected with Chicken Polyclonal Anti-HA-HRP (ab1190) [1:1000] for ˜45 mins RT and luminescence detected with chemi-luminescent substrate.

[2] = biological target: T1, TRCW5 antigen (CD3δε-Fc-Avi); assay: ELISA after heat
recombinant human PSMA = biological target: T2, recombinant human PSMA (human, UniProt Q04609 44-750); assay: SPR (Biacore 8K), antibody captured on anti-Fc, PSMA in solution; average of 2
T2 construct: also called hu PSMA; prostate-specific membrane antigen
Method: (§1) The binding affinity of anti-PSMA to the recombinant human or cynomolgus PSMA was determined by surface plasmon resonance (SPR) using a Biacore 8K instrument (ELN PSMA-00721). The antibodies were captured on a goat anti-Fc antibody-modified C1 chip and titrated with 3-fold serial dilutions of PSMA antigen spanning concentrations of 100 nM to 3.7 nM (human PSMA) or […] 22.2-600 nM for cyno PSMA. The association and dissociation were monitored for 3 and 60 minutes, respectively, using a flow rate of 50 μL/min. Raw binding data was referenced by subtracting the analyte binding signals from blanks and analyzed using a 1:1 Langmuir binding model by the Biacore Insight evaluation software to obtain the kinetics which were used to calculate the binding affinity. The anti-PSMA were captured using an anti-human Fc antibody and the antigens were injected in solution.

[3] = biological target: T3, recombinant cynomolgus PSMA (cynomolgus, UniProt A0A2K5VNZ0 44-750); assay: as above
T3 construct: also called cy PSMA; cyno PSMA
Method: as §1

T1 sequence (chain, as listed by the source mutant limits assumed): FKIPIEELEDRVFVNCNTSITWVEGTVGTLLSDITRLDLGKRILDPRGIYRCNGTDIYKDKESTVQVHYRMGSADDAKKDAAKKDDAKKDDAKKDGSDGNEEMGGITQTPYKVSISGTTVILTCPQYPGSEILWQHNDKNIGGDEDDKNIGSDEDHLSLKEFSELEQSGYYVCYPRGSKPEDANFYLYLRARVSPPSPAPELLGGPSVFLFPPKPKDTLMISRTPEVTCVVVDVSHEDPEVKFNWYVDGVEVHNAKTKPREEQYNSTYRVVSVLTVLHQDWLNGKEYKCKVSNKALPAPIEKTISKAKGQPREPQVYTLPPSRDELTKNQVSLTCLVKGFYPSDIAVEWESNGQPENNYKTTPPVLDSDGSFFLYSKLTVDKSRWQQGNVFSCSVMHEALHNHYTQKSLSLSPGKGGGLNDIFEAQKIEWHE
T2 sequence (Q04609 44-750 limits assumed): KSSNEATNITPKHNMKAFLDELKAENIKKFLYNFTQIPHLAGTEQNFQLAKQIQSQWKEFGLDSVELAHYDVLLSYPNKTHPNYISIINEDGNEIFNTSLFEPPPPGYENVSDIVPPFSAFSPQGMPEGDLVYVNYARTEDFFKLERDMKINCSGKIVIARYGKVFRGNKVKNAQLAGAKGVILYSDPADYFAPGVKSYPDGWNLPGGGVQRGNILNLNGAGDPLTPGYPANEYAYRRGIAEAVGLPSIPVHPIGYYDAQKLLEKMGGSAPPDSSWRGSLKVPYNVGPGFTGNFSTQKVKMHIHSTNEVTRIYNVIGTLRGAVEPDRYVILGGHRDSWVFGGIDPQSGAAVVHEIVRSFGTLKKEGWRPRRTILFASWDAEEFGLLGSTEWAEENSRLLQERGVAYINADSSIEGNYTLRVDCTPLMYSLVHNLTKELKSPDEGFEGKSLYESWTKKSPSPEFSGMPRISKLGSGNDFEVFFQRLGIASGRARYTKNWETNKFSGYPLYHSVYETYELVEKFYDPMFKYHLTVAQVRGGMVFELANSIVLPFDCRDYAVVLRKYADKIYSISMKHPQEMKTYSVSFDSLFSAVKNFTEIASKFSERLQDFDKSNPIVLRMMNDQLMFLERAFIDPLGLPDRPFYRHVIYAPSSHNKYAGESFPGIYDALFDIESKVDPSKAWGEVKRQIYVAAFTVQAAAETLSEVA

Binder | EC50 [1] [nM] | % Retained 55° C. [2] [%] | % Retained 60° C. [2] [%] | % Retained 65° C. [2] [%] | Kd (recombinant human PSMA) [nM] | koff (recombinant human PSMA) [s⁻¹] | kon (recombinant human PSMA) [M⁻¹ s⁻¹] | Kd [3] [nM] | koff [3] [s⁻¹] | kon [3] [M⁻¹ s⁻¹]
CD3B1128 (scFv, also called Murine LH; murine Cris-7 scFv (LH)) scFv: QVVLTQSPAIMSAFPGEKVTMTCSASSSVSYMNWYQQKSGTSPKRWIYDSSKLASGVPARFSGSGSGTSYSLTISSMETEDAATYYCQQWSRNPPTFGGGTKLQITGGSEGKSSGSGSESKSTGGSQVQLQQSGAELARPGASVKMSCKASGYTFTRSTMHWVKQRPGQGLEWIGYINPSSAYTNYNQKFKDKATLTADKSSSTAYMQLSSLTSEDSAVYYCASPQVHYDYNGFPYWGQGTLVTVSA | ~0.437 | 10 | 2 | 3 | – | – | – | – | – | –
PS3B1508 (bispecific antibody, human IgG1, lambda, L234A L235A, HC1 (Knob3): CD3W245-LH-scFv; HC2 (Hole3-RF) PSMB896-G100A-Fab-RF: IgG1 AAS; LC1 is given as NA; also called PS3B1508.003) DIQMTQSPSSLSASVGDRVTITCRARQSIGTAIHWYQQKPGKAPKLLIKYASESISGVPSRFSGSGSGTDFTLTISSLQPEDFATYYCQQSGSWPYTFGQGTKLEIKGGSEGKSSGSGSESKSTGGSEVQLVESGGGLVKPGGSLRLSCAASGFTFSRYNMNWVRQAPGKGLEWVSSISTSSNYIYYADSVKGRFTFSRDNAKNSLDLQMSGLRAEDTAIYYCTRGWGPFDYWGQGTLVTVSSEPKSSDKTHTCPPCPAPEAAGGPSVFLFPPKPKDTLMISRTPEVTCVVVSVSHEDPEVKFNWYVDGVEVHNAKTKPREEQYNSTYRVVSVLTVLHQDWLNGKEYKCKVSNKALPAPIEKTISKAKGQPREPQVYTLPPSREEMTKNQVSLWCLVKGFYPSDIAVEWESNGQPENNYKTTPPVLDSDGSFFLYSKLTVDKSRWQQGNVFSCSVMHEALHNHYTQKSLSLSPGK heavy: EVQLVESGGGLVQPGGSLRLSCAASGFTFSSYAMSWVRQAPGKGLEWVSAISGGIGSTYYADSVKGRFTISRDNSKNTLWLQMNSLRAEDTAVYYCAKDAVGATPYYFDYWGQGTLVTVSSASTKGPSVFPLAPSSKSTSGGTAALGCLVKDYFPEPVTVSWNSGALTSGVHTFPAVLQSSGLYSLSSVVTVPSSSLGTQTYICNVNHKPSNTKVDKKVEPKSCDKTHTCPPCPAPEAAGGPSVFLFPPKPKDTLMISRTPEVTCVVVSVSHEDPEVKFNWYVDGVEVHNAKTKPREEQYNSTYRVVSVLTVLHQDWLNGKEYKCKVSNKALPAPIEKTISKAKGQPREPQVYTLPPSREEMTKNQVSLSCAVKGFYPSDIAVEWESNGQPENNYKTTPPVLDSDGSFFLVSKLTVDKSRWQQGNVFSCSVMHEALHNRFTQKSLSLSPGK light: QSVLTQPPSVSAAPGQKVTISCSGSSSNIGINYVSWYQQLPGTAPKLLIYDNNKRPSGIPDRFSGSKSGTSATLGITGLQTGDEADYYCGTWDSSLSAVVFGGGTKLTVLGQPKAAPSVTLFPPSSEELQANKATLVCLISDFYPGAVTVAWKADSSPVKAGVETTTPSKQSNNKYAASSYLSLTPEQWKSHRSYSCQVTHEGSTVEKTVAPTECS | – | – | – | – | 0.382 | 8.89e-05 | 232000 | 2.2 | 0.00323 | 1.46e+06
PS3B1505 (bispecific antibody, human IgG1, lambda, L234A L235A, HC1 CD3B376-Fab x HC2 PSMB896-G100A IgG1 DuoBody; also called PS3B1505.001) heavy 1: QVQLQQSGPRLVRPSQTLSLTCAISGDSVFNNNAAWSWIRQSPSRGLEWLGRTYYRSKWLYDYAVSVKSRITVNPDTSRNQFTLQLNSVTPEDTALYYCARGYSSSFDYWGQGTLVTVSSASTKGPSVFPLAPSSKSTSGGTAALGCLVKDYFPEPVTVSWNSGALTSGVHTFPAVLQSSGLYSLSSVVTVPSSSLGTQTYICNVNHKPSNTKVDKKVEPKSCDKTHTCPPCPAPEAAGGPSVFLFPPKPKDTLMISRTPEVTCVVVSVSHEDPEVKFNWYVDGVEVHNAKTKPREEQYNSTYRVVSVLTVLHQDWLNGKEYKCKVSNKALPAPIEKTISKAKGQPREPQVYTLPPSREEMTKNQVSLTCLVKGFYPSDIAVEWESNGQPENNYKTTPPVLDSDGSFLLYSKLTVDKSRWQQGNVFSCSVMHEALHNHYTQKSLSLSPGK light 1: QSALTQPASVSGSPGQSITISCTGTSSNIGTYKFVSWYQQHPDKAPKVLLYEVSKRPSGVSSRFSGSKSGNTASLTISGLQAEDQADYHCVSYAGSGTLLFGGGTKLTVLGQPKAAPSVTLFPPSSEELQANKATLVCLISDFYPGAVTVAWKADSSPVKAGVETTTPSKQSNNKYAASSYLSLTPEQWKSHRSYSCQVTHEGSTVEKTVAPTECS heavy 2: EVQLVESGGGLVQPGGSLRLSCAASGFTFSSYAMSWVRQAPGKGLEWVSAISGGIGSTYYADSVKGRFTISRDNSKNTLWLQMNSLRAEDTAVYYCAKDAVGATPYYFDYWGQGTLVTVSSASTKGPSVFPLAPSSKSTSGGTAALGCLVKDYFPEPVTVSWNSGALTSGVHTFPAVLQSSGLYSLSSVVTVPSSSLGTQTYICNVNHKPSNTKVDKKVEPKSCDKTHTCPPCPAPEAAGGPSVFLFPPKPKDTLMISRTPEVTCVVVSVSHEDPEVKFNWYVDGVEVHNAKTKPREEQYNSTYRVVSVLTVLHQDWLNGKEYKCKVSNKALPAPIEKTISKAKGQPREPQVYTLPPSREEMTKNQVSLTCLVKGFYPSDIAVEWESNGQPENNYKTTPPVLDSDGSFFLYSRLTVDKSRWQQGNVFSCSVMHEALHNHYTQKSLSLSPGK light 2: QSVLTQPPSVSAAPGQKVTISCSGSSSNIGINYVSWYQQLPGTAPKLLIYDNNKRPSGIPDRFSGSKSGTSATLGITGLQTGDEADYYCGTWDSSLSAVVFGGGTKLTVLGQPKAAPSVTLFPPSSEELQANKATLVCLISDFYPGAVTVAWKADSSPVKAGVETTTPSKQSNNKYAASSYLSLTPEQWKSHRSYSCQVTHEGSTVEKTVAPTECS | – | – | – | – | 0.393 | 9.1e-05 | 232000 | 5.01 | 0.00124 | 429000
PS3B1396 (bispecific antibody, human IgG1, lambda, L234A L235A, HC1 (Knob3): CD3B2030-N106A-scFv LH, HC2 (Hole3): PSMB896-G100A-Fab; LC1 is given as NA; also called PS3B1396.002) EIVLTQSPATLSASPGERVTLSCSASSSVSYMNWYQQKPGQAPRRWIYDSSKLASGVPARFSGSGSGRDYTLTISSLEPEDFAVYYCQQWSRNPPTFGGGTKVEIKGGSEGKSSGSGSESKSTGGSQVQLVQSGAEVKKPGSSVKVSCKASGYTFTRSTMHWVKQAPGQGLEWIGYINPSSAYTNYNQKFQGRVTLTADKSTSTAYMELSSLRSEDTAVYYCASPQVHYDYAGFPYWGQGTLVTVSSEPKSSDKTHTCPPCPAPEAAGGPSVFLFPPKPKDTLMISRTPEVTCVVVSVSHEDPEVKFNWYVDGVEVHNAKTKPREEQYNSTYRVVSVLTVLHQDWLNGKEYKCKVSNKALPAPIEKTISKAKGQPREPQVYTLPPSREEMTKNQVSLWCLVKGFYPSDIAVEWESNGQPENNYKTTPPVLDSDGSFFLYSKLTVDKSRWQQGNVFSCSVMHEALHNHYTQKSLSLSPGK heavy: EVQLVESGGGLVQPGGSLRLSCAASGFTFSSYAMSWVRQAPGKGLEWVSAISGGIGSTYYADSVKGRFTISRDNSKNTLWLQMNSLRAEDTAVYYCAKDAVGATPYYFDYWGQGTLVTVSSASTKGPSVFPLAPSSKSTSGGTAALGCLVKDYFPEPVTVSWNSGALTSGVHTFPAVLQSSGLYSLSSVVTVPSSSLGTQTYICNVNHKPSNTKVDKKVEPKSCDKTHTCPPCPAPEAAGGPSVFLFPPKPKDTLMISRTPEVTCVVVSVSHEDPEVKFNWYVDGVEVHNAKTKPREEQYNSTYRVVSVLTVLHQDWLNGKEYKCKVSNKALPAPIEKTISKAKGQPREPQVYTLPPSREEMTKNQVSLSCAVKGFYPSDIAVEWESNGQPENNYKTTPPVLDSDGSFFLVSKLTVDKSRWQQGNVFSCSVMHEALHNRFTQKSLSLSPGK light: QSVLTQPPSVSAAPGQKVTISCSGSSSNIGINYVSWYQQLPGTAPKLLIYDNNKRPSGIPDRFSGSKSGTSATLGITGLQTGDEADYYCGTWDSSLSAVVFGGGTKLTVLGQPKAAPSVTLFPPSSEELQANKATLVCLISDFYPGAVTVAWKADSSPVKAGVETTTPSKQSNNKYAASSYLSLTPEQWKSHRSYSCQVTHEGSTVEKTVAPTECS | – | – | – | – | 0.395 | 8.82e-05 | 224000 | 5.07 | 0.0019 | 587000
